Read-outs that look alike come from different tables or passages of the source.
What was measured:
[1] = molecular target: human CLDN18.2 (human); assay: cell-based or functional assay
[2] = molecular target: T1, human CD3 on Jurkat cells (human, UniProt P07766 23-207); assay: FACS on Jurkat cells (CD3)
T1 construct: whole, on cells; on cells it stands in the whole CD3/TCR complex; also called CD3-expressing cells
Description: (§1) Antibodies were assayed for binding affinity by FACS. Test cells include HEK293/hCLDN18.2, HEK293/hCLDN18.1, NUGC4_D8 and Jurkat cells. […] The cell density was adjusted to 10⁶ cells/mL, and 50 μL of the cell suspension was added to each well of a 96-well plate. Antibodies were diluted to different concentrations with FACS buffer, and 50 μL of the antibody dilution was added to each well of the 96-well plate. After 2 h of incubation at 4° C., the plate was washed twice with FACS buffer. […] After 1 h of incubation at 4° C., the plate was washed twice with FACS buffer. The cells were resuspended in fixative solution, and then the fluorescence of the cells was monitored using an FACS instrument (ACEA NovoCyte).

[3] = molecular target: CLDN18.2 of SNU620 cells (methionine to leucine at amino acid 149) (human, UniProt P56856-2 1-261); assay: cell-based or functional assay
CLDN18.2 of SNU620 cells (methionine to leucine at amino acid 149), sequence (P56856 other isoform, or with tags, fused parts or gaps limits assumed): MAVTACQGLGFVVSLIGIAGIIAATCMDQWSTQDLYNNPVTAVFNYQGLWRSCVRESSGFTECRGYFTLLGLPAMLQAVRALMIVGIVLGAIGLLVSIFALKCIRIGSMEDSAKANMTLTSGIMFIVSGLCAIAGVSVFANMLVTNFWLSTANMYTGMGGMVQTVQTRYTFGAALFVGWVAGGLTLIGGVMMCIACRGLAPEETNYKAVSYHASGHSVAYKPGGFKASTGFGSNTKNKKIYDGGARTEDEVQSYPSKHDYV

[4] = molecular target: T2, human CLDN18.2 (human); assay: FACS on HEK293/hCLDN18.2 cells
T2 construct: the HEK293 line was made with a GenScript plasmid; also called hCLDN18.2

[5] = molecular target: T2, human CLDN18.2; assay: FACS on NUGC4_D8 cells
[6] = molecular target: T1, human CD3 on Jurkat cells; assay: FACS on Jurkat cells (CD3); remark: listed apart in the source
Description: as §1

[7] = molecular target: T3, human CLDN18.1 (human, UniProt P56856 1-261); assay: FACS on HEK293/hCLDN18.1 cells
T3 construct: whole, on cells; also called hCLDN18.1
T3 sequence (P56856 whole entry): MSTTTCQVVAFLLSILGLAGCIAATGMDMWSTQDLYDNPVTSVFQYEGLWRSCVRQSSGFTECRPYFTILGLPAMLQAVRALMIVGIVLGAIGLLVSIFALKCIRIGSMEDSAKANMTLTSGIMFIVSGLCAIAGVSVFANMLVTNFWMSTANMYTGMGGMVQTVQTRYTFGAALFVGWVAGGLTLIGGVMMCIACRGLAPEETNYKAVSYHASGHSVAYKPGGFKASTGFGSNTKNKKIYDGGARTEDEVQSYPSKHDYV
Description: as §1

[8] = molecular target: T1, human CD3 on Jurkat cells; assay: FACS on Jurkat cells (CD3); remark: listed apart in the source
Description: as §1

T1 sequence (P07766 23-207): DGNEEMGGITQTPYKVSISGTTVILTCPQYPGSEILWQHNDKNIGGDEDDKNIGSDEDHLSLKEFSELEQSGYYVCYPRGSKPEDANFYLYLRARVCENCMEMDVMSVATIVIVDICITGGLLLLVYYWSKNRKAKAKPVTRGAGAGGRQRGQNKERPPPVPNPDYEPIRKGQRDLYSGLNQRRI

TDCC, Titer EC50 (pM), NUGC4_D8 [1] [pM]	binding result [2]	TDCC, Titer EC50 (pM), SNU620 [3] [pM]	EC50 [4] [nM]	EC50 [5] [nM]	binding result [6]	binding result [7]	binding result [8]	Binder
102	binds							PR005076 (bispecific antibody, human IgG1, lambda, L234A L235A, structure 1; CD3 Fab from PR003886, CLDN18.2 VH from PR004536; LALA) EVQLVESGGGLVQPGGSLRLSCAASGFTFSSYWMYWVRQVPGKGLVWVSHINSDGSTTQYADSVKGRFTISRDNAKNMLYLQMNSLRAEDTAVYYCARDFPVLGGSHFDFQHWGQGTLVTVSSGGGGSGGGGSGGGGSEVQLVESGGGLVQPGGSLRLSCAASGFTFSSYWMYWVRQVPGKGLVWVSHINSDGSTTQYADSVKGRFTISRDNAKNMLYLQMNSLRAEDTAVYYCARDFPVLGGSHFDFQHWGQGTLVTVSSASEPKSSDKTHTCPPCPAPEAAGGPSVFLFPPKPKDTLMISRTPEVTCVVVDVSHEDPEVKFNWYVDGVEVHNAKTKPREEQYNSTYRVVSVLTVLHQDWLNGKEYKCKVSNKALPAPIEKTISKAKGQPREPQVCTLPPSREEMTKNQVSLSCAVKGFYPSDIAVEWESNGQPENNYKTTPPVLDSDGSFFLVSKLTVDKSRWQQGNVFSCSVMHEALHNHYTQKSLSLSPGK heavy: not shown light: QAVVTQEPSLTVSPGGTVTLTCRSSTGAVTTSNYANWVQQKPGQAPRGLIGGTNKRAPWTPARFSGSLLGDKAALTLLGAQPEDEAEYFCALWYSNLWVFGGGTKLTVLGQPKAAPSVTLFPPSSEELQANKATLVCLISDFYPGAVTVAWKADSSPVKAGVETTTPSKQSNNKYAASSYLSLTPEQWKSHRSYSCQVTHEGSTVEKTVAPTECS
251	binds	17.8	33.1					PR004603 (bispecific antibody, human IgG1, lambda, L234A L235A, structure 1 (2+1 Fab-Fc-Dual VH); CD3 Fab from PR003886, CLDN18.2 VH from PR004227; IgG1 knob/hole, LALA) EVQLVESGGGLVQPGGSLRLSCAASGFTFSSYWMHWVRQAPGKGLEWVSYINNDGSSTRYADSVKGRFTISRDNAKNTLYLQMNSLRAEDTAVYYCTEAPPYGNYERDYWGQGTLVTVSSGGGGSGGGGSGGGGSEVQLVESGGGLVQPGGSLRLSCAASGFTFSSYWMHWVRQAPGKGLEWVSYINNDGSSTRYADSVKGRFTISRDNAKNTLYLQMNSLRAEDTAVYYCTEAPPYGNYERDYWGQGTLVTVSSASEPKSSDKTHTCPPCPAPEAAGGPSVFLFPPKPKDTLMISRTPEVTCVVVDVSHEDPEVKFNWYVDGVEVHNAKTKPREEQYNSTYRVVSVLTVLHQDWLNGKEYKCKVSNKALPAPIEKTISKAKGQPREPQVCTLPPSREEMTKNQVSLSCAVKGFYPSDIAVEWESNGQPENNYKTTPPVLDSDGSFFLVSKLTVDKSRWQQGNVFSCSVMHEALHNHYTQKSLSLSPGK heavy: not shown light: QAVVTQEPSLTVSPGGTVTLTCRSSTGAVTTSNYANWVQQKPGQAPRGLIGGTNKRAPWTPARFSGSLLGDKAALTLLGAQPEDEAEYFCALWYSNLWVFGGGTKLTVLGQPKAAPSVTLFPPSSEELQANKATLVCLISDFYPGAVTVAWKADSSPVKAGVETTTPSKQSNNKYAASSYLSLTPEQWKSHRSYSCQVTHEGSTVEKTVAPTECS
142	binds	34.5	15.7	90.7				PR005072 (bispecific antibody, human IgG1, lambda, L234A L235A, structure 1; CD3 Fab from PR003886, CLDN18.2 VH from PR004533; LALA) EVQLVESGGGLVQPGGSLRLSCAASGFTFSSYWMHWVRQVPGKGLVWVSRINSDGSRTIYADSVKGRFTISRDNAKNTLYLQMNSLRAEDTAVYYCARGEDHDILTGYPIRGQGTTVTVSSGGGGSGGGGSGGGGSEVQLVESGGGLVQPGGSLRLSCAASGFTFSSYWMHWVRQVPGKGLVWVSRINSDGSRTIYADSVKGRFTISRDNAKNTLYLQMNSLRAEDTAVYYCARGEDHDILTGYPIRGQGTTVTVSSASEPKSSDKTHTCPPCPAPEAAGGPSVFLFPPKPKDTLMISRTPEVTCVVVDVSHEDPEVKFNWYVDGVEVHNAKTKPREEQYNSTYRVVSVLTVLHQDWLNGKEYKCKVSNKALPAPIEKTISKAKGQPREPQVCTLPPSREEMTKNQVSLSCAVKGFYPSDIAVEWESNGQPENNYKTTPPVLDSDGSFFLVSKLTVDKSRWQQGNVFSCSVMHEALHNHYTQKSLSLSPGK heavy: not shown light: QAVVTQEPSLTVSPGGTVTLTCRSSTGAVTTSNYANWVQQKPGQAPRGLIGGTNKRAPWTPARFSGSLLGDKAALTLLGAQPEDEAEYFCALWYSNLWVFGGGTKLTVLGQPKAAPSVTLFPPSSEELQANKATLVCLISDFYPGAVTVAWKADSSPVKAGVETTTPSKQSNNKYAASSYLSLTPEQWKSHRSYSCQVTHEGSTVEKTVAPTECS
9		18.3	20.4	19.4	binds			PR005398 (bispecific antibody, human IgG1, lambda, L234A L235A, structure 1; CD3 Fab from PR003886, CLDN18.2 VH from PR007242; LALA) EVQLVESGGGLVQPGGSLRLSCAASGFTFSSYWMHWVRQVPGKGLVWVSRINFDSSRTIYADSVKGRFTISRDNAKNTLYLQMNSLRAEDTAVYYCARGEDHDILTGYPIRGQGTTVTVSSGGGGSGGGGSGGGGSEVQLVESGGGLVQPGGSLRLSCAASGFTFSSYWMHWVRQVPGKGLVWVSRINFDSSRTIYADSVKGRFTISRDNAKNTLYLQMNSLRAEDTAVYYCARGEDHDILTGYPIRGQGTTVTVSSASEPKSSDKTHTCPPCPAPEAAGGPSVFLFPPKPKDTLMISRTPEVTCVVVDVSHEDPEVKFNWYVDGVEVHNAKTKPREEQYNSTYRVVSVLTVLHQDWLNGKEYKCKVSNKALPAPIEKTISKAKGQPREPQVCTLPPSREEMTKNQVSLSCAVKGFYPSDIAVEWESNGQPENNYKTTPPVLDSDGSFFLVSKLTVDKSRWQQGNVFSCSVMHEALHNHYTQKSLSLSPGK heavy: not shown light: QAVVTQEPSLTVSPGGTVTLTCRSSTGAVTTSNYANWVQQKPGQAPRGLIGGTNKRAPWTPARFSGSLLGDKAALTLLGAQPEDEAEYFCALWYSNLWVFGGGTKLTVLGQPKAAPSVTLFPPSSEELQANKATLVCLISDFYPGAVTVAWKADSSPVKAGVETTTPSKQSNNKYAASSYLSLTPEQWKSHRSYSCQVTHEGSTVEKTVAPTECS
21.9		313			binds			PR005422 (bispecific antibody, human IgG1, lambda, L234A L235A, structure 1; CD3 Fab from PR003886, CLDN18.2 VH from PR007247; LALA) EVQLVESGGGLVQPGGSLRLSCAASGFTFSSYWMYWVRQVPGKGLVWVSHINPLGSTTQYADSVKGRFTISRDNAKNMLYLQMNSLRAEDTAVYYCARDFPVLGGSHFDFQHWGQGTLVTVSSGGGGSGGGGSGGGGSEVQLVESGGGLVQPGGSLRLSCAASGFTFSSYWMYWVRQVPGKGLVWVSHINPLGSTTQYADSVKGRFTISRDNAKNMLYLQMNSLRAEDTAVYYCARDFPVLGGSHFDFQHWGQGTLVTVSSASEPKSSDKTHTCPPCPAPEAAGGPSVFLFPPKPKDTLMISRTPEVTCVVVDVSHEDPEVKFNWYVDGVEVHNAKTKPREEQYNSTYRVVSVLTVLHQDWLNGKEYKCKVSNKALPAPIEKTISKAKGQPREPQVCTLPPSREEMTKNQVSLSCAVKGFYPSDIAVEWESNGQPENNYKTTPPVLDSDGSFFLVSKLTVDKSRWQQGNVFSCSVMHEALHNHYTQKSLSLSPGK heavy: not shown light: QAVVTQEPSLTVSPGGTVTLTCRSSTGAVTTSNYANWVQQKPGQAPRGLIGGTNKRAPWTPARFSGSLLGDKAALTLLGAQPEDEAEYFCALWYSNLWVFGGGTKLTVLGQPKAAPSVTLFPPSSEELQANKATLVCLISDFYPGAVTVAWKADSSPVKAGVETTTPSKQSNNKYAASSYLSLTPEQWKSHRSYSCQVTHEGSTVEKTVAPTECS
73.9		41		13.9		no binding	binds	PR005521 (bispecific antibody, third chain is CD3 VH-CH1; PR001848 / PR004533; LALA) chain 1: EVQLVESGGGLVQPGGSLRLSCAASGFTFSSYWMHWVRQVPGKGLVWVSRINSDGSRTIYADSVKGRFTISRDNAKNTLYLQMNSLRAEDTAVYYCARGEDHDILTGYPIRGQGTTVTVSSGGGGSGGGGSGGGGSEVQLVESGGGLVQPGGSLRLSCAASGFTFSSYWMHWVRQVPGKGLVWVSRINSDGSRTIYADSVKGRFTISRDNAKNTLYLQMNSLRAEDTAVYYCARGEDHDILTGYPIRGQGTTVTVSSASEPKSSDKTHTCPPCPAPEAAGGPSVFLFPPKPKDTLMISRTPEVTCVVVDVSHEDPEVKFNWYVDGVEVHNAKTKPREEQYNSTYRVVSVLTVLHQDWLNGKEYKCKVSNKALPAPIEKTISKAKGQPREPQVCTLPPSREEMTKNQVSLSCAVKGFYPSDIAVEWESNGQPENNYKTTPPVLDSDGSFFLVSKLTVDKSRWQQGNVFSCSVMHEALHNHYTQKSLSLSPGK chain 2: not shown chain 3: EVQLLESGGGLVQPGGSLRLSCAASGFTFSTYAMNWVRQAPGKGLEWVSRIRSKYNNYATYYADSVKDRFTISRDDSKSTLYLQMNSLRAEDTAVYYCVRHGNFGNSYVSWFAYWGQGTLVTVSSASTKGPSVFPLAPSSKSTSGGTAALGCLVKDYFPEPVTVSWNSGALTSGVHTFPAVLQSSGLYSLSSVVTVPSSSLGTQTYICNVNHKPSNTKVDKKVEPKSC

Source: patent US20250340631A1 (HARBOUR BIOMED SHANGHAI, published 2025)
